These results are taken from US20120271039, “METHOD FOR PURIFYING ACTIVE GLA-DOMAIN COAGULATION PROTEINS” (LFB BIOTECHNOLOGIES, published 2012).

The target in data set [1] is T1, Coagulation Factor IX (recombinant) (Homo sapiens, UniProt P00740 P00740:47-461). Description: SPR; FIX immobilized; 50 mM Tris, 10 mM CaCl2, 4 mM MgCl2, pH 7.5. The settings on record: tags: BeneFIX (nonacog alfa, Wyeth); correctly gamma-carboxylated. The procedure: (§1) Each sample was injected sequentially onto the same chip (solid support) containing the immobilized human recombinant FIX. Controls are obtained by injecting blanks containing only run buffer. All the injections were carried out with a flow rate of 30 μl/min for 60 sec; after the injection, run buffer was injected onto the chip at an identical flow rate for 120 sec.
(§2) Elution buffer (10 mM EDTA) was then injected for 60 sec with a flow rate of 30 μl/min to uncouple the aptamer from the immobilized human FIX.
(§3) The chip makes it possible to observe in real time the formation and the disruption of interactions between the immobilized human recombinant FIX and each of the aptamers, having the sequences SEQ ID Nos. 3 and 6 to 35, tested, through surface plasmon resonance (SPR). Binding to the immobilized recombinant human FIX generates an increase in signal expressed in resonance units (RU) recorded by the apparatus (FIG. 6). These analyses are carried out with the Biacore T100 SPR apparatus (GE). The modeling of the recorded interactions is carried out by means of the Biaevaluation software (GE).
In general terms: In SPR one partner is held on a chip, and binding of the other changes the refractive index at the surface.

For data set [2], the target named is T1, Coagulation Factor IX (recombinant). Description: SPR; highest affinity of the 30 core aptamers; FIX immobilized; 50 mM Tris, 10 mM CaCl2, 4 mM MgCl2, pH 7.5. The settings on record: tags: BeneFIX (nonacog alfa, Wyeth); correctly gamma-carboxylated. The procedure:
as §1, §2, §3

Data set [3] addresses Coagulation Factor VII (plasma) (Homo sapiens, UniProt P08709 P08709:61-466). Description: affinity chromatography; Ca/Mg buffer, EDTA elution. The settings on record: tags: plasma FVII (98-99% pure; ACSET, LFB, in column tests); label: biotin. The procedure: The FVII is eluted with a 20 mM Tris-HCl+10 mM EDTA buffer at pH 7.5. The elution peak is collected according to the OD profile.
In FIG. 15, the injection (1) of human plasma […] concentrate is followed rapidly by the elimination peak (2) of the fraction not retained on the affinity support. The affinity support continues to saturate with the coagulation protein of interest: complexes between (i) the anti-GLA nucleic aptamers of the affinity support and (ii) the human plasma FVII molecules initially contained in the composition to be purified were formed. After running the composition to be purified, a step of washing the column with the previously specified washing buffer is carried out. Then, the elution step is carried out by injecting the elution buffer solution comprising a final concentration of 10 mM of EDTA.

T1 sequence (P00740 47-461, one chain of several): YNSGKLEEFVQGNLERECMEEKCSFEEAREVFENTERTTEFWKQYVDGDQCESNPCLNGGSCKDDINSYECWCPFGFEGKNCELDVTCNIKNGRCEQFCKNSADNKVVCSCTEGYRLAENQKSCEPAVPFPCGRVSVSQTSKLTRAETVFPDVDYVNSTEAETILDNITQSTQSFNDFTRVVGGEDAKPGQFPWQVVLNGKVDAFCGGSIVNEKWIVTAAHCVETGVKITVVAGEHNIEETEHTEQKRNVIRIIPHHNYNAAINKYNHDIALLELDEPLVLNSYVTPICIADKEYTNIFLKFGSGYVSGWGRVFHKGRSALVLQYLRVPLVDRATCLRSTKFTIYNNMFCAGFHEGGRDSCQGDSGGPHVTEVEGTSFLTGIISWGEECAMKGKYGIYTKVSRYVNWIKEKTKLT
Coagulation Factor VII (plasma), sequence (P08709 61-466, one chain of several): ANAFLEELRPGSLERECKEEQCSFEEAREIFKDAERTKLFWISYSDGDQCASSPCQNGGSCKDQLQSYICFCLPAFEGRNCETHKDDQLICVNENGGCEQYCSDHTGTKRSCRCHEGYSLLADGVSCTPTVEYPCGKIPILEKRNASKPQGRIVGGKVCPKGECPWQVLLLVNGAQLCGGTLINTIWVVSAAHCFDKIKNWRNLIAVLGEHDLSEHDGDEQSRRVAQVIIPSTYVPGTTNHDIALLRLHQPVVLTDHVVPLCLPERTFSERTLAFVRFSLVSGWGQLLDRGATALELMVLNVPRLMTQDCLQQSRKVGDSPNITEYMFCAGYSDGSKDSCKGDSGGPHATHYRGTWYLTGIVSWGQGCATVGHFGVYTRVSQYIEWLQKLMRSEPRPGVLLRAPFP

B1: Mapt-1 core sequence (Mapt-1-CS) (ssDNA)
DNA: CGCACATGACTTGAAGTTAAACGCGAATTACAAACCCAGCCCCC
Consider B1, for which the binding result in data set [1] is given as “binds”.

B2: Mapt-1.2-CS (ssDNA)
DNA: CGCACATGACTTGAAGTAAAACGCGAATTACAGACCAAACCCG
Turning to B2, the binding result in data set [2] is reported as “binds”.

B3: Mapt-2-CS (ssDNA)
DNA: CCGCACACCACGCGCATGACCCCGCGCACACGACTTGAAGTAGC
For the molecule B3, the binding result in data set [3] is “binds”.
